Laboratory results as given in paper PMC13376213 (Nature Communications, 2026).
Ends that are not written are not given here.

Target: USP11 tandem DUSP-UBL domain, tag cleaved (for FP) (human)
Test: fluorescence polarisation; saturation or displacement not stated for this experiment; 50 mM phosphate buffer pH 7.4, room temperature
Conditions: both partners purified

Chain of USP11 tandem DUSP-UBL domain, tag cleaved (for FP) (human) (chain, as listed by the source): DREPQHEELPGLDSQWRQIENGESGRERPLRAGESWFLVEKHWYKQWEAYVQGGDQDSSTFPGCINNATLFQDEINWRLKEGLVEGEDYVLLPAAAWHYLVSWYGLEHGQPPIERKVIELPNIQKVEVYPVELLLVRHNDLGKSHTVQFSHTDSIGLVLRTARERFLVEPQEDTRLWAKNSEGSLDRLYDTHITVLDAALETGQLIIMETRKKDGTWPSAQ

Binder: SAVTYPDWIGQSYSEV-NH2 (also: N-terminus FITC-labeled or acetylated, not given here which) [ORAI1 peptide used for FP]
- Kd: 200 to 300 µM
